Target: par6_caeel par-6 (UniProt Q9NAN2)
Sequence (Q9NAN2 whole entry): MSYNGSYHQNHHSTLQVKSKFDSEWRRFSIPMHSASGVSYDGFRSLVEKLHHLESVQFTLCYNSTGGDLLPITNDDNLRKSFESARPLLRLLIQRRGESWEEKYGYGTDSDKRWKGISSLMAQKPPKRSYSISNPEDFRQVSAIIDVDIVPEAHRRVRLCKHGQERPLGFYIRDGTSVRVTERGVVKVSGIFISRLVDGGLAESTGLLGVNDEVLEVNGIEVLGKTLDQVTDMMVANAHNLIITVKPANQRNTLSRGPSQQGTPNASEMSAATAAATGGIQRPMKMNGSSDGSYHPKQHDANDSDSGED

Sequence of Cell division control protein 42 homolog (Caenorhabditis elegans), Q05062 T17N (Q05062 whole entry T17N): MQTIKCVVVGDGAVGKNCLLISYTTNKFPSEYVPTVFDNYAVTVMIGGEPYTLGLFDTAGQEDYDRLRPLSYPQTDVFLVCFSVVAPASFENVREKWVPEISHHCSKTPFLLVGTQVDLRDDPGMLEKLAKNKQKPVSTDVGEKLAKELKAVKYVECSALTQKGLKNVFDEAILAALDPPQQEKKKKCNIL

effect of a mutation on the interaction: disrupting interaction
Substance: Cell division control protein 42 homolog (Caenorhabditis elegans), Q05062 T17N
